In paper PMC2751797:

Substrate: NC(=O)c1cc(N2CC2)c([N+](=O)[O-])cc1[N+](=O)[O-]
Assay: purified protein
Assay type: biochemical, Escherichia coli
Conditions: NADPH 60 μM fixed, 10 mM Tris-HCl pH 7.5, 23 °C

B1: NfsB (His6-NfsB) (Escherichia coli K-12) (protein)
chain: MDIISVALKRHSTKAFDASKKLTPEQAEQIKTLLQYSPSSTNSQPWHFIVASTEEGKARVAKSAAGNYVFNERKMLDASHVVVFCAKTAMDDVWLKLVVDQEDADGRFATPEAKAANDKGRKFFADMHRKDLHDDAEWMAKQVYLNVGNFLLGVAALGLDAVPIEGFDAAILDAEFGLKEKGYTSLVVVPVGHHSVEDFNATLPKSRLPQNITLTEV
Km: 79 ± 22 µM
kcat/Km: 26000 M⁻¹ s⁻¹
